Drawing on patent US20120053118A1, this text covers IC50 for eleven molecules.

Where two headings read alike, the source gives them in different places. Bridge positions count the residues as written; N and C are the ends. Ends that are not written are not given here.

Assay [1] has as its target amylin receptors (membrane-bound, rat basal forebrain membranes containing the nucleus accumbens and surrounding regions) (rat). In words: competition with 125I Bolton-Hunter rat amylin on rat basal forebrain membranes.
The target is the same in assay [2]. The description is as above. The source holds these as a separate data set.

In assay [1], human amylin (hAmylin) (ligand) registered an IC50 of 50000 nM.

CNTATCATQRLANFLVHSSNNFGPILPSTNVGSNTY [des-^1Lys^25, 28Pro-h-Amylin] displayed an IC50 in assay [2] of 0.085 nM.

In turn, CNTATCATQRLANFLVRSSNNFGPILPPTNVGSNTY [des-^1Lys^18Arg^25, 28, 29Pro-h-Amylin] showed an IC50 in assay [2] of 0.021 nM.

CNTATCATQRLANFLVHSSNNFGPILPPTNVGSNTY [des-^1Lys^25, 28, 29Pro-h-Amylin] showed an IC50 in assay [2] of 0.014 nM.

On to CNTATCATQRLANFLVRSSNNFGPILPSTNVGSNTY [des-^1Lys^18Arg^25, 28Pro-h-Amylin], for which the IC50 in assay [2] amounted to 0.082 nM.

In assay [2], KCNTATCATQRLANFLVHSSNNFGPILPSTNVGSNTY [^25, 28Pro-h-Amylin] gave a 50% inhibitory concentration (IC50) of 0.026 nM.

For KCNTATCATQRLANFLVHSSNNFGPVLPPTNVGSNTY [^25Pro^26Val^28, 29Pro-h-Amylin], the IC50 in assay [2] stood at 0.018 nM.

For the molecule KDNTATKATQRLANFLVHSSNNFGAILSSTNVGSNTY (lactam 2-7; not fully specified (C-terminus)) [^2, 7Cyclo-[^2Asp,^7Lys]-h-Amylin], the IC50 in assay [2] came to 0.31 nM.

Molecule KCNTATCATQRLANFLVRSSNNFGPILPPTNVGSNTY [^18Arg^25, 28, 29Pro-h-Amylin] returned an IC50 in assay [2] of 0.021 nM.

As for KCNTATCATQRLANFLVRSSNNFGPILPSTNVGSNTY [^18Arg^25, 28Pro-h-Amylin], the IC50 in assay [2] was 0.032 nM.

In the case of KCNTATCATQRLANFLVHSSNNFGPILPPTNVGSNTY (disulfide 2-7; not fully specified (C-terminus)) [^25, 28, 29Pro-h-Amylin], the IC50 in assay [2] is 0.01 nM.
